Consider 18 molecules from CN114651011A (dated 2022).

Changes are numbered by the printed parent chain.

Assay [1] addresses T1, 重组人CD43细胞外部分 (aa 20-253), produced in E. coli, not glycosylated (human, UniProt P16150 20-253).
T1 construct: also called 重组人CD43分析物(aa 20-253); CD43的无糖基化细胞外部分
T1 sequence: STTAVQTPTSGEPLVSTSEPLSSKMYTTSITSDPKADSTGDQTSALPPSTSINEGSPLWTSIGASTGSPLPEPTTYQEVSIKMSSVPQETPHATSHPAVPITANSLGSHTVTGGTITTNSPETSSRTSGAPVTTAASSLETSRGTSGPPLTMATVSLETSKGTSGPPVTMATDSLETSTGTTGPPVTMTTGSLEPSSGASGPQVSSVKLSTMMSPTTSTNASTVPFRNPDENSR
The experiment in a line: SPRi (PlexArray HT), antibody printed on the gold chip, recombinant CD43 aa 20-253 from E. coli as analyte, 25°C.

Assay [2] deals with T2, 野生型肽 PPSTSINEGSPLWTS (aa 66-80 of human CD43), peptide of the epitope substitution scan (human).
T2 construct: also called wild-type peptide; 人CD43的线性表位，用于取代筛选
T2 peptide: PPSTSINEGSPLWTS
The assay is described as follows: substitution scan peptide microarray, antibody at 1, 10, 100 and 250 μg/ml.

Assay [3] deals with T3, CD43#6 (CD43 with aa 64 to 78 deleted), expressed in HEK293T cells (human, UniProt P16150 20-400).
T3 construct: also called CD43克隆#6; 第五CD43变体; not shown: His tag (and GFP by the name of the vector pLenti-CMV-(insert)-Histag-GFP-2A-Puro)
T3 sequence: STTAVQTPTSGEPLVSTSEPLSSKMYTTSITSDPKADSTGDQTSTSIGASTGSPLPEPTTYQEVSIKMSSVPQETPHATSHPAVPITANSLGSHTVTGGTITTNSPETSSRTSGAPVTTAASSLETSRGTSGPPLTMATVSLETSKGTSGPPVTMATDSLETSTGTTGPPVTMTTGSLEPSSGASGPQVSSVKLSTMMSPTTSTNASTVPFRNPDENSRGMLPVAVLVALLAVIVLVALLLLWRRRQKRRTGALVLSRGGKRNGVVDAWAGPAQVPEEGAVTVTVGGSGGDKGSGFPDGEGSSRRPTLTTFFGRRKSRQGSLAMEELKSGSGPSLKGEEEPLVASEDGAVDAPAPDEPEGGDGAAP
The experiment in a line: FACS with h-UMG1-PE on GFP-positive transfected HEK293T cells.

The target in assay [4] is T4, 人CD43 (human CD43, UMG1 epitope), endogenous on human cells, cell lines and tissues (human, UniProt P16150 20-400).
T4 construct: The cells carry the natural protein; also called UMG1表位; UMG1抗原
T4 sequence: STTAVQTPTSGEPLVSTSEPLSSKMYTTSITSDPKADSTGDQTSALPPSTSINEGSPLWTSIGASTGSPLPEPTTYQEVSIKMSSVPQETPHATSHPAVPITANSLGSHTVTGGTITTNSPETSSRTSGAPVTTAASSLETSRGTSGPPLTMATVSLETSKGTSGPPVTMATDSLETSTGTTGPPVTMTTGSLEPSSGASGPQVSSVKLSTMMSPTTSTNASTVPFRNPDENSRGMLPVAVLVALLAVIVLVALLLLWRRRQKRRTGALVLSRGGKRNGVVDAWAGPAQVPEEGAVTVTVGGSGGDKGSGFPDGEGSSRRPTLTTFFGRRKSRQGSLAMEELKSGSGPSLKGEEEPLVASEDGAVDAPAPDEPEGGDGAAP
The assay is described as follows: flow cytometry (MFI) on HPB-ALL and H9 cells, 1 μg/ml, FITC mouse anti-human IgG.

Assay [5] has as its target T4, 人CD43 (human CD43, UMG1 epitope), …. The assay is described as follows: flow cytometry on PBMC of healthy donors, 1 μg/ml, FITC secondary antibody. (Flow cytometry measures light scatter and fluorescence of single cells or particles in a stream.)
Assay [6] shares this target. The assay is described as follows: immunofluorescence on fixed THP-1-derived macrophages without or with PANC1 cells.

B1: h-UMG1 (人源化UMG1单克隆抗体, H3-L4) (antibody, human IgG1, kappa, V domains shown)
VH: EVQLVESGGGLVQPGGSLRLSCVASGFTFSSFGMHWVRQAPGKGLEWVAYISSGSGNFYYVDTVKGRFTISRDNAKNSLYLQMNSLRAEDTAVYYCARSTYYHGSRGAMDYWGQGTLVTVSS
VL: QVVMTQSPAFLSVTPGEKVTITCSASSSVSSMYWYQLKPDQAPKLLIYDTSKMASGVPIRFSGSGSGTDFTFTVSSVEAEDAATYYCQQWSSYPPITFGGGTKVEIKR
notes: IgG1; also called h-UMG1单抗; 人源化单克隆抗CD43抗体
As for B1, in assay [1], the Kd came out at 99.4 nM. Moreover, the results for the binding result in assay [2] and in assay [3] were “binds” and “no binding (tested: 1μg/ml)”, respectively.

B2: 人源化UMG1抗体 H2-L1 (antibody, IgG1, V domains shown)
VH: B1 VH with A49S
VL: EIVLTQSPATLSLSPGERATLSCSASSSVSSMYWYQQKPGLAPRLLIYDTSKMASGIPDRFSGSGSGTDFTLTISRLEPEDFAVYYCQQWSSYPPITFGQGTRLEIK
notes: one of the 16 combinations of H1-4 with L1-4
Turning to B2, the binding result in assay [4] is recorded as “binds”.

B3: 人源化UMG1抗体 H2-L3 (antibody, IgG1, V domains shown)
VH: B1 VH with A49S
VL: QVVMTQSPAFLSVTPGEKVTITCSASSSVSSMYWYQQKPDQAPKLLIYDTSKMASGVPSRFSGSGSGTDFTFTISSLEAEDAATYYCQQWSSYPPITFGGGTKVEIK
notes: as for B2
On to B3, for which, in assay [4], the binding result is listed as “binds”.

B4: 人源化UMG1抗体 H3-L1 (antibody, IgG1, V domains shown)
VH: B1 VH
VL: B2 VL
notes: as for B2
Turning to B4, the binding result in assay [4] is recorded as “binds”.

B5: 人源化UMG1抗体 H3-L2 (antibody, IgG1, V domains shown)
VH: B1 VH
VL: B2 VL with V3A, Q37L, D59I, I74V, L77V
notes: as for B2
On to B5, for which the binding result in assay [4] was “binds”.

B6: 人源化UMG1抗体 H4-L4 (antibody, IgG1, V domains shown)
VH: B1 VH with E1Q, L11V, A75S, S78T
VL: B3 VL with Q37L, S59I, I74V, L77V
notes: as for B2
Consider B6, for which the binding result in assay [4] is listed as “binds”.

B7: 人源化UMG1抗体 H1-L1 (antibody, IgG1, V domains shown)
VH: B1 VH with V23A, A49S
VL: B2 VL
notes: as for B2
On to B7, for which, in assay [4], the binding result is reported as “binds”.

B8: 人源化UMG1抗体 H2-L2 (antibody, IgG1, V domains shown)
VH: B1 VH with A49S
VL: B2 VL with V3A, Q37L, D59I, I74V, L77V
notes: as for B2
For the molecule B8, in assay [4], the binding result is “binds”.

B9: 人源化UMG1抗体 H1-L4 (antibody, IgG1, V domains shown)
VH: B1 VH with V23A, A49S
VL: B3 VL with Q37L, S59I, I74V, L77V
notes: as for B2
As for B9, the binding result in assay [4] is “binds”.

B10: 人源化UMG1抗体 H4-L2 (antibody, IgG1, V domains shown)
VH: B1 VH with E1Q, L11V, A75S, S78T
VL: B2 VL with V3A, Q37L, D59I, I74V, L77V
notes: as for B2
For the molecule B10, the binding result in assay [4] is recorded as “binds”.

B11: 人源化UMG1抗体 H3-L3 (antibody, IgG1, V domains shown)
VH: B1 VH
VL: B3 VL
notes: as for B2
With B11, the binding result in assay [4] is on record as “binds”.

B12: 人源化UMG1抗体 H2-L4 (antibody, IgG1, V domains shown)
VH: B1 VH with A49S
VL: B3 VL with Q37L, S59I, I74V, L77V
notes: as for B2
On to B12, for which, in assay [4], the binding result was “binds”.

B13: 人源化UMG1抗体 H1-L3 (antibody, IgG1, V domains shown)
VH: B1 VH with V23A, A49S
VL: B3 VL
notes: as for B2
On to B13, for which the binding result in assay [4] was “binds”.

B14: 人源化UMG1抗体 H1-L2 (antibody, IgG1, V domains shown)
VH: B1 VH with V23A, A49S
VL: B2 VL with V3A, Q37L, D59I, I74V, L77V
notes: as for B2
B14: the binding result in assay [4] is recorded as “binds”.

B15: 人源化UMG1抗体 H4-L3 (antibody, IgG1, V domains shown)
VH: B1 VH with E1Q, L11V, A75S, S78T
VL: B3 VL
notes: as for B2
With B15, the binding result in assay [4] is on record as “binds”.

B16: 人源化UMG1抗体 H4-L1 (antibody, IgG1, V domains shown)
VH: B1 VH with E1Q, L11V, A75S, S78T
VL: B2 VL
notes: as for B2
For B16, the binding result in assay [4] was “binds”.

B17: 单克隆抗体UMG1 (murine anti-human CD43 antibody produced by the hybridoma deposited as ICLC PD n°16001) (antibody, V domains shown)
VH: DVQLVESGGGLVQPGGSRKLSCVASGFTFSSFGMHWVRQAPEKGLEWVAYISSGSGNFYYVDTVKGRFTISRDNPKNTLFLQMTSLRSEDTAMYYCARSTYYHGSRGAMDYWGQGTSVTVSS
VL: QIALTQSPAIMSASPGEKVTMTCSASSSVSSMYWYQLKPGSSPRLLIYDTSKMASGVPIRFSGSGSGTSFSLTVSRVEAEDAATYYCQQWSSYPPITFGAGSKLELK
notes: Murine antibody, kappa light chain; the negative control is a murine IgG1; also called m-UMG1; mUMG1
B17: the binding result in assay [5] is given as “binds”.

B18: ch-UMG1 (嵌合抗体, murine UMG1 variable regions on human IgG1 constant regions) (antibody, V domains shown)
VH: B17 VH
VL: QIALTQSPAIMSASPGEKVTMTCSASSSVSSMYWYQLKPGSSPRLLIYDTSKMASGVPIRFSGSGSGTSFSLTVSRVEAEDAATYYCQQWSSYPPITFGAGSKLELKR
notes: also called UMG1-CH; 嵌合单克隆抗体
Turning to B18, the binding result in assay [6] was “binds”.

By Kd is commonly meant the equilibrium constant for the complex coming apart.
